B1: Far upstream element-binding protein 2 (Homo sapiens), Q92945 (parent)
chain: MSDYSTGGPPPGPPPPAGGGGGAGGAGGGPPPGPPGAGDRGGGGPGGGGPGGGSAGGPSQPPGGGGPGIRKDAFADAVQRARQIAAKIGGDAATTVNNSTPDFGFGGQKRQLEDGDQPESKKLASQGDSISSQLGPIHPPPRTSMTEEYRVPDGMVGLIIGRGGEQINKIQQDSGCKVQISPDSGGLPERSVSLTGAPESVQKAKMMLDDIVSRGRGGPPGQFHDNANGGQNGTVQEIMIPAGKAGLVIGKGGETIKQLQERAGVKMILIQDGSQNTNVDKPLRIIGDPYKVQQACEMVMDILRERDQGGFGDRNEYGSRIGGGIDVPVPRHSVGVVIGRSGEMIKKIQNDAGVRIQFKQDDGTGPEKIAHIMGPPDRCEHAARIINDLLQSLRSGPPGPPGGPGMPPGGRGRGRGQGNWGPPGGEMTFSIPTHKCGLVIGRGGENVKAINQQTGAFVEISRQLPPNGDPNFKLFIIRGSPQQIDHAKQLIEEKIEGPLCPVGPGPGGPGPAGPMGPFNPGPFNQGPPGAPPHAGGPPPHQYPPQGWGNTYPQWQPPAPHDPSKAAAAAADPNAAWAAYYSHYYQQPPGPVPGPAPAPAAPPAQGEPPQPPPTGQSDYTKAWEEYYKKIGQQPQQPGAPPQQDYTKAWEEYYKKQAQVATGGGPGAPPGSQPDYSAAWAEYYRQQAAYYGQTPGPGGPQPPPTQQGQQQAQ

Variants of: B1
Conditions: with akt1_human AKT1, P31749
akt1_human AKT1, P31749, sequence (P31749 whole entry): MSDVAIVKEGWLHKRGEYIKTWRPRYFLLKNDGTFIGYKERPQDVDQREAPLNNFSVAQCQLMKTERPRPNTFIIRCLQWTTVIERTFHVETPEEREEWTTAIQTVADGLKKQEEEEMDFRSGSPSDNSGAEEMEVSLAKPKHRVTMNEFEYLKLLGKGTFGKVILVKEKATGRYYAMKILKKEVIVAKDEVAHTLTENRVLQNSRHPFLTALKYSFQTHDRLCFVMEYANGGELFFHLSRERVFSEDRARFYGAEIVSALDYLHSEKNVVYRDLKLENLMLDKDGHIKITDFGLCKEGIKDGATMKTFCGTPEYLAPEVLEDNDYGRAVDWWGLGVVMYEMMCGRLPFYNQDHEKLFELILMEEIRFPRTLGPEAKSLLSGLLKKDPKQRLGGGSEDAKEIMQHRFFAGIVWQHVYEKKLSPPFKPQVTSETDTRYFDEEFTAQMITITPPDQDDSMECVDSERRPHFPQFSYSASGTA

Variant	effect of a mutation on the interaction
S193A	disrupting interaction
